Laboratory results reported in paper doi:10.1101/2022.09.14.507982.

Target: F-actin (filamentous actin from rabbit muscle) (rabbit) (UniProt P68135)
Assay: co-sedimentation

- Kd: 3.42 µM
Substance: Ig3 domain of palladin (domain or fragment)
